Source: US10322164B2, “Modulation of cellular localization of cyclin C” (Rowan University, priority 2014, dated 2019)

What was measured:
[1] = test system: Drp1 phosphorylation at the activating serine (Ser616); assay: Drp1 Ser616 phosphorylation in Hela cells subjected to H2O2; assay type: cell-based, human
Text: (§1) For phosphorylation, both inhibitory and stimulatory modifications have been identified. For example, cyclin B-Cdk1 phosphorylation at the G2/M boundary stimulates Drp1 activity to induce fission to promote mitochondrial partitioning during mitosis. This modification is clearly observed in cells arrested at the G2/M boundary following addition of the microtubule destabilizing agent nocodazole. Therefore, one possibility is that cytoplasmic cyclin C is now free to interact with another Cdk to modify Drp1 and induce fission. However, no increase was found in Drp1 phosphorylation at the activating serine (Ser616) in Hela cells subjected to H2O2 or in permeabilized CCNC^−/−MEF cells treated with GST-cyclin C. […] It is possible that the accelerated fission in these experiments results in de-phosphorylation of Ser616 helping attenuate mitochondrial fragmentation.

HeLa cells = assay: Cyclin C localization in stressed HeLa cells; assay type: cell-based, human
Experimental: (FIG. 14A) cyclin C localization in H2O2 stressed cultures as indicated. See (FIG. 14B) for enlarged images for 6 hr+H2O2 cells. (FIG. 14C) Knockdown efficiency of cyclin C by siRNA. con=scrambled siRNA control. Annexin V studies in the cultures described in (FIG. 14D). Graph illustrates % annexin V positive cells for cells with and without Cyclin C siRNA knockdown in the presence or absence of H2O2. Error bars=s.e.m. Three independent cultures were assayed for each sample.
(§2) Cells were cultured on coverslips then fixed with 4% paraformaldehyde for 20 min, permeabilized with 0.2% Triton X-100 for 15 min, blocked with 2% BSA, and incubated with antibodies as indicated. The cells were mounted with DAPI-containing medium (Vector Labs) and the images were acquired with Nikon Eclipse 90i microscope equipped with a Retiga Exi CCD camera and NIS software for data analysis. DAPI (5 μg/ml) and Mitotracker Red (5 μg/ml) staining was used to identify nuclear and mitochondrial subcellular localization.
(§3) To evaluate the role of cyclin C in PCD execution, CCNC specific siRNAs were used to knockdown cyclin C. The knockdown efficiency was about 70% compared to control (FIG. 14C).

[2] = test system: MCF-7 breast cancer cell line; assay: Cyclin C localization in stressed MCF-7 cells; assay type: cell-based, human; details: H2O2 0.4 mM for 4 h
Experimental: (§4) (FIG. 15A) cyclin C localization was followed in MCF-7 or MCF-10A cells exposed to H2O2 (0.4 mM) for 4 h. (FIG. 15B) cyclin C levels were monitored by Western blot in MCF-7 cells treated with (+) or without (−) CCNC specific siRNAs. β-tubulin levels were followed as a loading control. (FIG. 15C) Viability was measured (viable stain assays) in the cell lines described in (FIG. 15B) following 4 h H2O2 exposure as indicated.
as §2, §3

MCF-10A cells = assay: Cyclin C localization and mitochondrial fission in stressed MCF-10A cells; assay type: cell-based, human; details: H2O2 0.4 mM for 4 h
Experimental: as §4, §2, §3

[3] = target: T1, cyclin C-Med13 interaction (Mus musculus, UniProt Q5SWW4); assay: Cyclin C localization and mitochondrial morphology in MEF cells incubated with TAT-HAD or control peptide (indirect immunofluorescence); assay type: cell-based
T1 construct: endogenous in cells; host or cells: wild type (CCNC+/+) mouse embryonic fibroblasts, SV40 T antigen immortalized
Experimental: The amino terminal sequences of cyclin C from the indicated organisms. Homologies are shaded. Boxed region is targeted using the HIV TAT basic domain fused to the 19 amino acid (aa) peptide indicated by the line above the sequence. (FIG. 11B) Representative images of MEF cells incubated with TAT-HAD peptide or control (25 μM) for three hours then fixed and stained for the nucleus (DAPI), mitochondria (MitoTracker Red) and cyclin C (α-cyclin C). Arrows indicate regions of interaction between cyclin C and mitochondria.
as §2
CCNC^+/+ and CCNC^−/− MEF cells were treated with 0.4 mM H2O2 for 4 hrs. Mitochondrial morphology was monitored by MitoTracker Red staining. The cells were imaged with the 60× objective on the Nikon Eclipse C1Ti confocal microscope equipped with a Ds-Qi1MC CCD camera. The TAT-HAD peptide was added to log phase unstressed wild type MEF cultures for 3 h prior to image acquisition.
A highly conserved region of cyclin C has been identified [Cooper, K. F. and R. Strich, Functional analysis of the Ume3p/Srb11p-RNA polymerase II holoenzyme interaction. Gene Expr, 1999. 8(1): p. 43-57; Cooper, K. F., S. Khakhina, S. K. Kim, and R. Strich, Stress-Induced Nuclear-to-Cytoplasmic Translocation of Cyclin C Promotes Mitochondrial Fission in Yeast, Dev Cell, 2014. 28: p. 161-173.], boxed, FIG. 11A) that is responsible for Med13 binding in yeast. […]

[4] = test system: permeabilized CCNC^−/−MEF cells; assay: Mitochondrial fragmentation in digitonin-permeabilized CCNC-/- MEF cells after adding GST fusion proteins (live confocal microscopy); assay type: cell-based, mouse
Experimental: To examine whether cyclin C was sufficient to induce fission or if additional stress-specific signals were required, permeabilized CCNC^−/−MEF cells were used and E. coli purified human GST-cyclin C (Hs GST-cyclin C). The CCNC^−/−null cell line was employed to avoid any contribution from endogenous cyclin C. GST-cyclin C or GST (˜4 nM) was added to digitonin treated cells and mitochondrial morphology was monitored in living cells by confocal microscopy. Images were collected for 18 min at 2 min increments. […] Deconvolved images reveled little detectable changes in mitochondrial morphology in the GST treated cultures up to 18 min (9.3%). […] To determine if this function is conserved, the activity of the yeast cyclin C fused to GST (GST-cyclin C Sc) was also examined. […] To determine if the quantity of GST-cyclin C added was rate limiting, this experiment was repeated with twice the GST-cyclin C Hs concentration as before.

[5] = test system: Drp1 phosphorylation at the activating serine (Ser616); assay: Drp1 Ser616 phosphorylation in permeabilized CCNC-/- MEF cells treated with GST-cyclin C; assay type: cell-based, mouse
Text: as §1

[6] = permeabilized CCNC-/- MEF cells

T1 sequence (Q5SWW4 whole entry): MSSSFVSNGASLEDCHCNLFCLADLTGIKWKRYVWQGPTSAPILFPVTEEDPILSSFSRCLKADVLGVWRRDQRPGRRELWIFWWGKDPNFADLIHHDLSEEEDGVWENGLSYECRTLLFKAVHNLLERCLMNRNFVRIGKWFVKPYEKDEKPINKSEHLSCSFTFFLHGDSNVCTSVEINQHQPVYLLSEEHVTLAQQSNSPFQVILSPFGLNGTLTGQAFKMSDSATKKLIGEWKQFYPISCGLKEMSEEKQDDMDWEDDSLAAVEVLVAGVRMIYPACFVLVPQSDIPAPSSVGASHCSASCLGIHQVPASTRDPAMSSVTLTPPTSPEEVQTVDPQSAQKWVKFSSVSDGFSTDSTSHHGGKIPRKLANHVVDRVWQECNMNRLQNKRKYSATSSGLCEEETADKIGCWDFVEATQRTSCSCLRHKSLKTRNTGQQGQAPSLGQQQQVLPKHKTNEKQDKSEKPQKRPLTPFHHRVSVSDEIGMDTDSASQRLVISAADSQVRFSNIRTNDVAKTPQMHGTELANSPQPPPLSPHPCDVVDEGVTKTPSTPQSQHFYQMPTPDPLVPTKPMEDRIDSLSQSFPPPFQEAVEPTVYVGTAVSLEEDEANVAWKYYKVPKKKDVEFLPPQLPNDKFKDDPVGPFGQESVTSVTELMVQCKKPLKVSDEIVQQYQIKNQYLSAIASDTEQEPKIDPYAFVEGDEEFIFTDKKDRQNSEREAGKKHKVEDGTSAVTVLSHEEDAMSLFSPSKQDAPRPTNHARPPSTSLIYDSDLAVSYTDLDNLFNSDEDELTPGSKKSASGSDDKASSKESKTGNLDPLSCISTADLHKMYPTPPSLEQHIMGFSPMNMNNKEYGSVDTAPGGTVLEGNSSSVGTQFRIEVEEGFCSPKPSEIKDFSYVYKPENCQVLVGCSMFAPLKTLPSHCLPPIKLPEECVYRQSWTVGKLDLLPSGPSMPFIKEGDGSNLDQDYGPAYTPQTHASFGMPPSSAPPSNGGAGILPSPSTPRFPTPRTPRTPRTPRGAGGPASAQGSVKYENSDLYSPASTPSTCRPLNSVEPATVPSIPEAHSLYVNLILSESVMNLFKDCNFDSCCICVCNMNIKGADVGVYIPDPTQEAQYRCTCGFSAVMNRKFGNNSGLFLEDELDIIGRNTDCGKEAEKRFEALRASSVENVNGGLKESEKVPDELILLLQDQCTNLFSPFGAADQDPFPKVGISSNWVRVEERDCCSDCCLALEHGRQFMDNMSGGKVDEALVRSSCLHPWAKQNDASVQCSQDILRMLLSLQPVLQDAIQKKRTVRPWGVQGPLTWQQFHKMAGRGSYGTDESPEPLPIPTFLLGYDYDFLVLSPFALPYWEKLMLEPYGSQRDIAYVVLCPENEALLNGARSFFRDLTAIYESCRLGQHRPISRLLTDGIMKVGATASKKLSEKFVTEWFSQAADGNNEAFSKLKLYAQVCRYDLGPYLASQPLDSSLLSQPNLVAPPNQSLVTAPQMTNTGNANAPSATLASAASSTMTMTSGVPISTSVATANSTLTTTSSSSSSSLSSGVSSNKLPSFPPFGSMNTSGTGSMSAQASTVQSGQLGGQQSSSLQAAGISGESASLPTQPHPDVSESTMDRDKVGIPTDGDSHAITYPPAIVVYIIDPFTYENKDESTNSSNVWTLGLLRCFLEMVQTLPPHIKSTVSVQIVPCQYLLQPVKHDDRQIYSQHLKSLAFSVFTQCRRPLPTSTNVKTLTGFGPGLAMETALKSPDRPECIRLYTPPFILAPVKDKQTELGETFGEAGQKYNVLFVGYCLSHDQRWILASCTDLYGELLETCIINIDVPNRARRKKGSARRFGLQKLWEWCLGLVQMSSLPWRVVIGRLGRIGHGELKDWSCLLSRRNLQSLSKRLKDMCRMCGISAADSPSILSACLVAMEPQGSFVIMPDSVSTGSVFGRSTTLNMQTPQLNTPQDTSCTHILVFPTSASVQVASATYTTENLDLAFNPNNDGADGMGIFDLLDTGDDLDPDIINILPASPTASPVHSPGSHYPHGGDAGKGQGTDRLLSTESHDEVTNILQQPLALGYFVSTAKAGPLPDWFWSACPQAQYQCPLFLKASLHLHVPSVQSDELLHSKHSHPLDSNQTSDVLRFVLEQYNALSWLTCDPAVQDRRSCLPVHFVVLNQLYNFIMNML

**Q.** With `OO` [H2O2] as the molecule, how does the “Drp1 phosphorylation at Ser616” value [1] read?
**A.** no increase

**Q.** And the “cyclin C localization” value (HeLa cells)?
**A.** translocated from the nucleus to the cytoplasm

**Q.** What about the “cyclin C localization” value [2] of the same molecule?
**A.** remained nuclear

**Q.** And the “cyclin C relocalization and mitochondrial fission” value (MCF-10A cells)?
**A.** normal cyclin C relocalization and mitochondrial fission

**Q.** How did the “cyclin C localization” value [2] turn out when `N.N.[Cl][Pt][Cl]` [cisplatin] was run?
**A.** remained nuclear

**Q.** How did the “time within which the translocation/fragmentation phenotype was lost” value [3] turn out when “YGRKKRRQRRRWILDKQDLLKERQKDL (SEQ ID NO:6) (YGRKKRRQRRRWILDKQDLLKERQKDLKFL) [TAT-HAD peptide, HIV TAT basic domain fused to the cyclin C holoenzyme association domain (HAD) peptide]” was run?
**A.** ≤ 24 h

**Q.** And the “cyclin C localization” value ([3]; peptide 25 μM, three hours)?
**A.** nuclear to cytoplasmic cyclin C translocation

**Q.** What about the mitochondrial morphology ([3]; peptide 25 μM, three hours, MitoTracker Red) of the same molecule?
**A.** abnormal fragmented morphology

B1: GST-cyclin C: E. coli purified human GST-cyclin C (protein, UniProt P24863 1-283, looked up)
Cyclin-C: MAGNFWQSSHYLQWILDKQDLLKERQKDLKFLSEEEYWKLQIFFTNVIQALGEHLKLRQQVIATATVYFKRFYARYSLKSIDPVLMAPTCVFLASKVEEFGVVSNTRLIAAATSVLKTRFSYAFPKEFPYRMNHILECEFYLLELMDCCLIVYHPYRPLLQYVQDMGQEDMLLPLAWRIVNDTYRTDLCLLYPPFMIALACLHVACVVQQKDARQWFAELSVDMEKILEIIRVILKLYEQWKNFDERKEMATILSKMPKPKPPPNSEGEQGPNGSQNSSYSQS
modifications: GST tag
**Q.** Which results are given for B1?
**A.** time to total mitochondrial fragmentation ([4]; twice the GST-cyclin C Hs concentration): ≤ 8 min; time at which significant mitochondrial fragmentation began ([4]; ~4 nM protein): ≤ 10 min; percentage of culture exhibiting fragmented mitochondria by 18 min ([4]; ~4 nM protein, digitonin treated cells, 8-10% fragmented prior to treatment): 94%; Drp1 phosphorylation at Ser616 [5, 6]: no increase; quantitation of the Ser616 phosphorylation signal ([5]; permeabilized cells): reduced

B2: GST-cyclin C Sc: yeast cyclin C fused to GST (protein, UniProt P47821 1-323, looked up)
RNA polymerase II holoenzyme …: MSGSFWTSTQRHHWQYTKASLAKERQKLWLLECQLFPQGLNIVMDSKQNGIEQSITKNIPITHRDLHYDKDYNLRIYCYFLIMKLGRRLNIRQYALATAHIYLSRFLIKASVREINLYMLVTTCVYLACKVEECPQYIRTLVSEARTLWPEFIPPDPTKVTEFEFYLLEELESYLIVHHPYQSLKQIVQVLKQPPFQITLSSDDLQNCWSLINDSYINDVHLLYPPHIIAVACLFITISIHGKPTKGSSLASAASEAIRDPKNSSSPVQIAFNRFMAESLVDLEEVMDTIQEQITLYDHWDKYHEQWIKFLLHTLYLRPASAI
modifications: GST tag
**Q.** B2 was tested. Which “efficiency of inducing mitochondrial fission compared with human cyclin C” value [4, 6] did it give?
**A.** as efficient inducing mitochondrial fission as the human cyclin C
